Laboratory results from publication PMC10450692.
Blank lines part the entries; values can stand above or below the substance they belong to.

Tests used:
Experiment in all cases: native MS; native nanoESI ion mobility MS (Synapt G2-S), 20 μM peptide in 200 mM ammonium acetate pH 6.8, positive ion mode, 25 °C source temperature; self-association of SEC-purified monomer
[1] = biological target: amyloid-β peptide Aβ(1–40)
[2] = biological target: Aβ(1–40)CC (A21C and A30C double mutant with an intramolecular disulfide bond)
[3] = biological target: Aβ(1–28)
[4] = biological target: scrambled Aβ(1–40)
[5] = biological target: Aβ(1–16)
[6] = biological target: Aβ(1–38)

stoichiometry N [1]: > 8
Substance: amyloid-β peptide Aβ(1–40)

stoichiometry N [2]: > 10
Substance: Aβ(1–40)CC (A21C and A30C double mutant with an intramolecular disulfide bond) (peptide)

stoichiometry N [3]: 6
Substance: Aβ(1–28) (peptide)

stoichiometry N [4]: 2
Substance: scrambled Aβ(1–40) (peptide)

stoichiometry N [5]: 2
Substance: Aβ(1–16) (peptide)

stoichiometry N [6]: > 6
Substance: Aβ(1–38) (peptide)
